Assay results taken from patent publication US20260258125A1 (NONA BIOSCIENCES SUZHOU, published 2026).

T1: human CEACAM5 on 293T cells (293T-huCEACAM5 cells) (human, UniProt P06731 35-685)
T1 sequence (looked up): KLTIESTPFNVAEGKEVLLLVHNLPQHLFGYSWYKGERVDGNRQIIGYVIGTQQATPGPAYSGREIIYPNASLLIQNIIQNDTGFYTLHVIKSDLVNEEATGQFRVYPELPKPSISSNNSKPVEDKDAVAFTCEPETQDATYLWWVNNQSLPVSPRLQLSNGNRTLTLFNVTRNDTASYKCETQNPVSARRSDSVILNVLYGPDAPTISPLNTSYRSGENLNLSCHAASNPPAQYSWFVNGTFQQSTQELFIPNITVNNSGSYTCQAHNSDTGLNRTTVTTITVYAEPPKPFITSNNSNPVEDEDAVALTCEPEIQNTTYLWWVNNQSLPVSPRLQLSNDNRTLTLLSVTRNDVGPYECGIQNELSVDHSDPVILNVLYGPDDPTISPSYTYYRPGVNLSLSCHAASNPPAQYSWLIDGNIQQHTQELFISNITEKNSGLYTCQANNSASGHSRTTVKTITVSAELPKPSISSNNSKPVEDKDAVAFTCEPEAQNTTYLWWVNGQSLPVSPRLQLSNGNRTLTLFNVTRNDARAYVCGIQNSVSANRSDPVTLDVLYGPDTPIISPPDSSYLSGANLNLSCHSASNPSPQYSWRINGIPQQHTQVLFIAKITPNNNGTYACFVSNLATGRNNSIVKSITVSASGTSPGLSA

T2: human CEACAM6 on 293T cells (293T-huCEACAM6 cells) (human, UniProt P40199 35-320)
T2 sequence (looked up): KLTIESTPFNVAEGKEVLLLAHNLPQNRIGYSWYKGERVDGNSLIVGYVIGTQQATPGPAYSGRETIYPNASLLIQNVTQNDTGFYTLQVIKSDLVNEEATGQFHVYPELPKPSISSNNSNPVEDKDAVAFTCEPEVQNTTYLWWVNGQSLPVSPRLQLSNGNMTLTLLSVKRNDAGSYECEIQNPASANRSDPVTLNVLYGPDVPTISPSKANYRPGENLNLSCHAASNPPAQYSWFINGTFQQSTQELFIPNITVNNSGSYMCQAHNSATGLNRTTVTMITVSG

T3: human CEACAM3 protein (human, UniProt P40198 35-155)
T3 construct: Bought protein; also called huCEACAM3
T3 sequence (looked up): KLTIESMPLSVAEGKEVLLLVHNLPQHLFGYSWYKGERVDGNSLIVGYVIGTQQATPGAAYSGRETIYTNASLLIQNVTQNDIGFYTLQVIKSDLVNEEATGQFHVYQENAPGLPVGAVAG


How the values were obtained:
[1] = biological target: T1, human CEACAM5 on 293T cells …; assay: cell-based or functional assay
[2] = biological target: T2, human CEACAM6 on 293T cells …; assay: cell-based or functional assay
[3] = biological target: T2, human CEACAM6 on 293T cells …; assay: flow cytometry on 293T-huCEACAM6 cells with against without 100 nM soluble CEACAM6
human CEACAM3 protein [4] = biological target: T3, human CEACAM3 protein; assay: ELISA, human CEACAM3 protein coated on the plate, anti-human Fc-HRP, OD450
From the text: Binding of recombinant anti-CEACAM5/6 dual-binding monoclonal antibodies against human and cynomolgus CEACAM5, and human CEACAM6 (Uniprot P40199), human CEACAM 1, 3 (NP_001806.2, Sino Biological 11933-H08H) and 8 (NP_001807.2, Acro Bio CE8-H5224) were detected by ELISA. Anti-CEACAM5/6 dual-antibodies were serially diluted in staining buffer (PBS containing 2% FBS). […] ELISA was used to test the binding between antibody containing supernatant or purified antibodies and the antigen. Briefly, the antigens were coated on a 96-well high binding plate overnight at 4° C. The plate was washed with PBST three times, incubated with blocking buffer (2% Bovine Serum Albumin) for one hour at 37° C., washed with PBST three times and incubated with antibody containing supernatant or purified antibodies at desired dilutions or concentrations for one hour at 37° C. A secondary antibody, anti-human Fc-HRP (Jackson Laboratory, 109-035-097) was used for detection of the targeted antibody. TMB and stopping solution were used for detection of HRP signal. The HRP signal was read on a SPECTRAMAX plate reader.

human CEACAM3 protein [5] = biological target: T3, human CEACAM3 protein; assay: ELISA, antigen coated on plate

Internalization of pHAb-dye-labelled antibody, MFI (37° C.-4° C.)/DAR [1] | Internalization of pHAb-dye-labelled antibody, MFI (37° C.-4° C.)/DAR [2] | fold change of EC50 at the presence of 100 nM soluble protein [3] | binding result (human CEACAM3 protein [4]) | binding result (human CEACAM3 protein [5]) | Binder
11300 | 14700 | 2.1 fold | no binding (tested: 100 nM) | – | PR304294 (antibody, human IgG1, kappa, V domains shown, Recombinant full antibody) VH: EVQLLESGGGLVQPGGSLRLSCAASGFTFSSYAMSWVRQAPGKGLEWVSAISGTTYNTYYAGSVKGRFTISRDNSKNTLYLQMNSLRAEDTAVYYCAKGISVAGYYYYGMDVWGQGTTVTVSS VL: EIVMTQSPATLSVSPGERATLSCRASQSVISNLAWYQQKPGQAPRLLIYGASTRATGIPARFSGSGSGTEFTLTISSLQSEDFAVYYCHQYNNWPLTFGGGTKVEIKR
– | – | – | – | no binding | PR304171 (antibody, human IgG1, kappa, V domains shown, Recombinant full antibody) VH: not shown VL: EIVMTQSPATLSVSPGERATLSCRASQNVISNLAWHQQKPGQAPRLLIYTTSTRATGIPARFSGSGSGTEFTLTISSLQSEDFAVYYCQQYNNWPLTFGGGTKVEIKR
